In the supplement of paper PMC7125110:
± gives the standard error. This sample holds only a part of the variants without activity.

B1: glmS ribozyme (parent)
chain: AUAAAAGCGCCAGAACUACAGAAAUGUAGUUGACGAGGAGGAGGUUUAUCGAAUUUUCGGCGGAUGCCUCCAAA

Experiments:
Conditions in all cases: with glucosamine-6-phosphate
[1] = variants of: B1; assay: self-cleavage kobs at 160 uM GlcN6P; higher = faster cleavage; RNA array
Method in brief: (§1)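 A hybridised Cy3 probe tracked barcoded ribozyme variants, transcribed in situ by E. coli RNA polymerase on sequenced MiSeq chips, at 37 °C. The variants received 40 μM to 10 mM glucosamine-6-phosphate in HEPES/KCl/Mg(OAc)2 buffer. kobs came from decay fits and kcat and KM from weighted Michaelis–Menten fits.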

[2] = variants of: B1; assay: self-cleavage kobs at 10000 uM GlcN6P; higher = faster cleavage; RNA array
Method in brief: as §1

[3] = variants of: B1; assay: self-cleavage kobs at 2500 uM GlcN6P; higher = faster cleavage; RNA array
Method in brief: as §1

[4] = variants of: B1; assay: self-cleavage kobs at 640 uM GlcN6P; higher = faster cleavage; RNA array
Method in brief: as §1

C10A A14G
self-cleavage kobs at 160 uM GlcN6P [1]: < 1e-05 s⁻¹
self-cleavage kobs at 10000 uM GlcN6P [2]: 3.58e-05 ± 1.1e-05 s⁻¹

G13U G44U
self-cleavage kobs at 160 uM GlcN6P [1]: < 1e-05 s⁻¹

A12U U47C U65C
self-cleavage kobs at 160 uM GlcN6P [1]: < 1e-05 s⁻¹

G43C U55A A64U
self-cleavage kobs at 160 uM GlcN6P [1]: < 1e-05 s⁻¹

C8U A12C A36G G37A
self-cleavage kobs at 160 uM GlcN6P [1]: < 1e-05 s⁻¹

A15G A33C A64U
self-cleavage kobs at 160 uM GlcN6P [1]: < 1e-05 s⁻¹
self-cleavage kobs at 2500 uM GlcN6P [3]: < 1e-05 s⁻¹

C10G U45C U49A U54G C70G
self-cleavage kobs at 160 uM GlcN6P [1]: < 1e-05 s⁻¹
self-cleavage kobs at 640 uM GlcN6P [4]: < 1e-05 s⁻¹

A23C A52G U69A
self-cleavage kobs at 160 uM GlcN6P [1]: 6.42e-05 ± 2.4e-05 s⁻¹
self-cleavage kobs at 640 uM GlcN6P [4]: 9.59e-05 ± 2.5e-05 s⁻¹

A6U U30G G44U A53C
self-cleavage kobs at 160 uM GlcN6P [1]: < 1e-05 s⁻¹
self-cleavage kobs at 640 uM GlcN6P [4]: < 1e-05 s⁻¹
self-cleavage kobs at 2500 uM GlcN6P [3]: < 1e-05 s⁻¹

G40A A48G C50G
self-cleavage kobs at 160 uM GlcN6P [1]: < 1e-05 s⁻¹
self-cleavage kobs at 2500 uM GlcN6P [3]: < 1e-05 s⁻¹

G35A G62C
self-cleavage kobs at 160 uM GlcN6P [1]: < 1e-05 s⁻¹
self-cleavage kobs at 640 uM GlcN6P [4]: < 1e-05 s⁻¹
self-cleavage kobs at 2500 uM GlcN6P [3]: < 1e-05 s⁻¹

G7U G32U A33C U47A G59A
self-cleavage kobs at 160 uM GlcN6P [1]: < 1e-05 s⁻¹

A6U G40A A52C
self-cleavage kobs at 160 uM GlcN6P [1]: < 1e-05 s⁻¹
self-cleavage kobs at 640 uM GlcN6P [4]: < 1e-05 s⁻¹
self-cleavage kobs at 2500 uM GlcN6P [3]: < 1e-05 s⁻¹

G7U A12U C67U
self-cleavage kobs at 160 uM GlcN6P [1]: < 1e-05 s⁻¹
self-cleavage kobs at 640 uM GlcN6P [4]: < 1e-05 s⁻¹

U30G G41C G60A
self-cleavage kobs at 160 uM GlcN6P [1]: < 1e-05 s⁻¹
self-cleavage kobs at 2500 uM GlcN6P [3]: < 1e-05 s⁻¹

U46G C58G U69G
self-cleavage kobs at 160 uM GlcN6P [1]: 6.07e-05 ± 2.5e-05 s⁻¹

G38C G43A
self-cleavage kobs at 160 uM GlcN6P [1]: < 1e-05 s⁻¹
self-cleavage kobs at 640 uM GlcN6P [4]: < 1e-05 s⁻¹
self-cleavage kobs at 2500 uM GlcN6P [3]: < 1e-05 s⁻¹
self-cleavage kobs at 10000 uM GlcN6P [2]: < 1e-05 s⁻¹

A15C A39G U56G C61G
self-cleavage kobs at 160 uM GlcN6P [1]: < 1e-05 s⁻¹
self-cleavage kobs at 640 uM GlcN6P [4]: < 1e-05 s⁻¹
self-cleavage kobs at 2500 uM GlcN6P [3]: < 1e-05 s⁻¹

U30G C71G
self-cleavage kobs at 160 uM GlcN6P [1]: 6.06e-05 ± 2.9e-05 s⁻¹
self-cleavage kobs at 640 uM GlcN6P [4]: 9.91e-05 ± 2.4e-05 s⁻¹
self-cleavage kobs at 2500 uM GlcN6P [3]: 0.000179 ± 4.3e-05 s⁻¹
self-cleavage kobs at 10000 uM GlcN6P [2]: 0.000543 ± 0.00012 s⁻¹

C11A G13U U47G A52C A53C
self-cleavage kobs at 160 uM GlcN6P [1]: < 1e-05 s⁻¹

A36G A48G
self-cleavage kobs at 160 uM GlcN6P [1]: < 1e-05 s⁻¹
self-cleavage kobs at 640 uM GlcN6P [4]: < 1e-05 s⁻¹
self-cleavage kobs at 2500 uM GlcN6P [3]: < 1e-05 s⁻¹
self-cleavage kobs at 10000 uM GlcN6P [2]: < 1e-05 s⁻¹

U57G G63C
self-cleavage kobs at 160 uM GlcN6P [1]: < 1e-05 s⁻¹
self-cleavage kobs at 640 uM GlcN6P [4]: < 1e-05 s⁻¹
self-cleavage kobs at 2500 uM GlcN6P [3]: < 1e-05 s⁻¹

G35U A42C U55C
self-cleavage kobs at 160 uM GlcN6P [1]: < 1e-05 s⁻¹
self-cleavage kobs at 640 uM GlcN6P [4]: < 1e-05 s⁻¹

G7A C11A A52U C70A
self-cleavage kobs at 160 uM GlcN6P [1]: < 1e-05 s⁻¹
self-cleavage kobs at 640 uM GlcN6P [4]: < 1e-05 s⁻¹
self-cleavage kobs at 2500 uM GlcN6P [3]: < 1e-05 s⁻¹

A6U C11G U30G U31A A42U
self-cleavage kobs at 160 uM GlcN6P [1]: < 1e-05 s⁻¹
self-cleavage kobs at 640 uM GlcN6P [4]: < 1e-05 s⁻¹
self-cleavage kobs at 2500 uM GlcN6P [3]: < 1e-05 s⁻¹

C11A A42G A53C
self-cleavage kobs at 160 uM GlcN6P [1]: < 1e-05 s⁻¹

A33C U45G U55C U57C A64U
self-cleavage kobs at 160 uM GlcN6P [1]: < 1e-05 s⁻¹
self-cleavage kobs at 640 uM GlcN6P [4]: < 1e-05 s⁻¹
self-cleavage kobs at 2500 uM GlcN6P [3]: < 1e-05 s⁻¹

G9U A14G U54A U56C G59A G63A U65G
self-cleavage kobs at 160 uM GlcN6P [1]: < 1e-05 s⁻¹
self-cleavage kobs at 640 uM GlcN6P [4]: < 1e-05 s⁻¹
